{"source": "patent US20130109846A1", "about": "(published 2013)", "binders": {"B1": {"name": "1h-82 (other)", "VL": "DIQMTQSPSSLSASVGDRVTITCRASQDIGLNLLWYQQKPGKAPTLLIYWSSMLQSGVPSRFSGSGSGTDFTLTISSLQPEDFATYYCQQGRMRPFTFGQGTKVEIKR"}, "B2": {"name": "1h-90 (other)", "VL": "B1 VL with D28T, L31H, N32G, L34V, T45K, M53H, G91T, R92L, M93R, R94T"}, "B3": {"name": "1h-86 (other)", "VL": "B1 VL with L31Q, N32S, L34V, T45K, S51A, G91V, R92M, M93R"}, "B4": {"name": "1h-207 (other)", "VL": "B1 VL with D28Y, L31T, N32S, L34A, T45K, W50H, M53G, G91T, R92A, M93L"}, "B5": {"name": "1h-109 (other)", "VL": "B1 VL with L31A, N32S, T45K, W50F, G91S, R92G"}, "B6": {"name": "1h-108 (other)", "VL": "DIQMTQSPSSLSASVGDRVTITCRASQYIGTALNWYQQKPGKAPKLLIYRRSHLQSGVPSRFSGSGSGTDFTLTISSLQPEDFATYYCQQIALTPYTFGQGTKVEIKR"}, "B7": {"name": "1h-108-5 (other)", "VL": "B6 VL with M4I, K45E, R51G, A84V"}, "B8": {"name": "1h-116 (other)", "VL": "DIQMTQSPSSLSASVGDRVTITCRASQSIYPFLEWYQQKPGKAPRLLIYFTSRLQSGVPSRFSGSGSGTDFTLTISSLQPEDFATYYCQQNATNPATFGQGTKVEIKR"}, "B9": {"name": "1h-239-816 (other)", "VL": "B8 VL with Q27R, S28T, R45K, Q89L, A92V, G99S"}, "B10": {"name": "1h-239-851 (other)", "VL": "B8 VL with Q27R, S28N, R45K, Q89L, A92V, G99S"}, "B11": {"name": "1h-239-807 (other)", "VL": "B8 VL with Q27R, S28A, Y30W, R45K, Q89L, A92V, G99S"}, "B12": {"name": "1h-239-856 (other)", "VL": "B8 VL with R45K, Q55R, S56H, Q89L, A92V, G99S"}, "B13": {"name": "1h-239 (other)", "VL": "B8 VL with R45K"}, "B14": {"name": "1h-239-824 (other)", "VL": "B8 VL with R45K, Q55R, S56Q, Q89L, A92V, G99S"}, "B15": {"name": "1h-239-832 (other)", "VL": "B8 VL with R45K, R53Y, Q55R, S56E, Q89L, A92V, G99S"}, "B16": {"name": "1h-239-840 (other)", "VL": "B8 VL with R45K, T51A, Q55A, Q89L, A92V, G99S"}, "B17": {"name": "1h-239-817 (other)", "VL": "B8 VL with Q27K, S28P, R45K, Q89L, A92V, G99S"}, "B18": {"name": "1h-239-804 (other)", "VL": "B8 VL with R45K, Q89L, A92V, T93S, N94M, G99S"}, "B19": {"name": "1h-239-829 (other)", "VL": "B8 VL with R45K, T51S, Q55A, Q89L, A92V, G99S"}, "B20": {"name": "1h-239-833 (other)", "VL": "B8 VL with R45K, Q55R, S56A, Q89L, A92V, G99S"}, "B21": {"name": "1h-239-815 (other)", "VL": "B8 VL with S28P, Y30W, R45K, Q89L, A92V, G99S"}, "B22": {"name": "1h-239-837 (other)", "VL": "B8 VL with R45K, Q55A, Q89L, A92V, G99S"}, "B23": {"name": "1h-239-819 (other)", "VL": "B8 VL with S28A, Y30W, R45K, Q89L, A92V, G99S"}, "B24": {"name": "1h-239-809 (other)", "VL": "B8 VL with Q27R, S28P, Y30W, R45K, Q89L, A92V, G99S"}, "B25": {"name": "1h-239-838 (other)", "VL": "B8 VL with R24Q, R45K, Q55A, S56R, Q89L, A92V, G99S, K103R"}, "B26": {"name": "1h-239-847 (other)", "VL": "B8 VL with R45K, Q55A, S56Y, Q89L, A92V, G99S, K107R"}, "B27": {"name": "1h-239-828 (other)", "VL": "B8 VL with R45K, Q55R, S56E, Q89L, A92V, G99S"}, "B28": {"name": "1h-239-849 (other)", "VL": "B8 VL with R45K, R53K, Q55T, S56R, T69A, S77N, Q89L, A92V, G99S"}, "B29": {"name": "1h-36 (other)", "VL": "DIQMTQSPSSLSASVGDRVTITCRASRDIALDLLWYQQKPGKAPKLLIKGWSGLQSGVPSRFSGSGSGTDFTLTISSLQPEDFATYYCAQGWGRPVTFGQGTKVEIKR"}, "B30": {"name": "1h-84 (other)", "VL": "DIQMTQSPSSLSASVGDRVTITCRASQSIGKGLMWYQQKPGKAPKLLIYWASMLQSGVPSRFSGSGSGTDFTLTISSLQPEDFATYYCQQSLRTPFTFGQGTEVEIKR"}, "B31": {"name": "1h-112 (other)", "VL": "B30 VL with S28H, G30N, K31A, G32S, M34G, K45R, M53Q, S91M, L92V, E103K"}, "B32": {"name": "1h-238 (other)", "VL": "B30 VL with S28H, G30N, K31A, G32S, M34G, M53Q, S91M, L92V, E103K"}, "B33": {"name": "1h-85 (other)", "VL": "B30 VL with S28P, K31A, G32S, M34L, K45R, A51G, M53L, F83L, E103K"}, "B34": {"name": "1h-203 (other)", "VL": "B30 VL with S28P, K31S, G32V, M34A, W50F, A51S, M53I, S91A, T94S, E103K"}, "B35": {"name": "1h-80-2 (other)", "VL": "DIQMTQSPSSLSASVGDRVTITCRASQRIGSNLAWYQQKPGKAPKLLIYWASLLQSGVPSRFSGSGSETDFTLTISSLQPEDFATYYCQQTRSAPFAFGQGTKVEIKR"}, "B36": {"name": "1h-81 (other)", "VL": "B35 VL with R28E, G30D, S31H, N32G, L53R, E68G, T91V, R92V, S93A, A97T"}, "B37": {"name": "1h-80 (other)", "VL": "B35 VL with E68G, A97T"}, "B38": {"name": "1h-87 (other)", "VL": "B35 VL with R28S, S31K, N32S, A51V, E68G, T91I, R92V, A94R, A97T"}, "B39": {"name": "1h-80-7 (other)", "VL": "B35 VL with E68G, T69S, Q90E, A97T"}, "B40": {"name": "1h-83 (other)", "VL": "B35 VL with R28S, S31H, N32S, A34V, P59S, E68G, T91S, S93A, A97T"}, "B41": {"name": "1h-79 (other)", "VL": "B30 VL with S28P, K31H, G32S, M34A, M53T, S91M, E103K"}, "B42": {"name": "1h-110 (other)", "VL": "DIQMTQSPSSLSASVGDRVTITCRASRDIGHMLNWYQQKPGKAPKLLIWFGSVLQSGVPSRFSGSGSGTDFTLTISSLQPEDFATYYCVQGRLRPPTFGQGTKVEIKR"}}, "note": "Substitutions are numbered along the chain they refer to.", "data": [{"molecular_target": "human CD28 (human, UniProt P10747 19-220)", "experiment": "cell-based or functional assay", "units": {"Luciferase assay (EC50)": "nM", "MLR assay (EC50)": "nM"}, "values": [{"binder": "B1", "Luciferase assay (EC50)": 1900}, {"binder": "B2", "Luciferase assay (EC50)": 1000}, {"binder": "B3", "Luciferase assay (EC50)": 400}, {"binder": "B4", "Luciferase assay (EC50)": 2600}, {"binder": "B5", "Luciferase assay (EC50)": 1000}, {"binder": "B6", "Luciferase assay (EC50)": 1900, "MLR assay (EC50)": 2700}, {"binder": "B7", "Luciferase assay (EC50)": 1900}, {"binder": "B8", "Luciferase assay (EC50)": 2500, "MLR assay (EC50)": 2400}, {"binder": "B9", "Luciferase assay (EC50)": 11, "MLR assay (EC50)": 13}, {"binder": "B10", "Luciferase assay (EC50)": 5, "MLR assay (EC50)": 4}, {"binder": "B11", "Luciferase assay (EC50)": 7, "MLR assay (EC50)": 6}, {"binder": "B12", "Luciferase assay (EC50)": 3, "MLR assay (EC50)": 1}, {"binder": "B13", "Luciferase assay (EC50)": 1300}, {"binder": "B14", "Luciferase assay (EC50)": 9, "MLR assay (EC50)": 6}, {"binder": "B15", "Luciferase assay (EC50)": 12, "MLR assay (EC50)": 11}, {"binder": "B16", "Luciferase assay (EC50)": 9, "MLR assay (EC50)": 10}, {"binder": "B17", "Luciferase assay (EC50)": 7, "MLR assay (EC50)": 9}, {"binder": "B18", "Luciferase assay (EC50)": 5, "MLR assay (EC50)": 3}, {"binder": "B19", "Luciferase assay (EC50)": 10, "MLR assay (EC50)": 11}, {"binder": "B20", "Luciferase assay (EC50)": 8, "MLR assay (EC50)": 7}, {"binder": "B21", "Luciferase assay (EC50)": 10, "MLR assay (EC50)": 6}, {"binder": "B22", "Luciferase assay (EC50)": 9, "MLR assay (EC50)": 14}, {"binder": "B23", "Luciferase assay (EC50)": 13, "MLR assay (EC50)": 11}, {"binder": "B24", "Luciferase assay (EC50)": 6, "MLR assay (EC50)": 4}, {"binder": "B25", "Luciferase assay (EC50)": 4, "MLR assay (EC50)": 3}, {"binder": "B26", "Luciferase assay (EC50)": 8, "MLR assay (EC50)": 5}, {"binder": "B27", "Luciferase assay (EC50)": 8, "MLR assay (EC50)": 14}, {"binder": "B28", "Luciferase assay (EC50)": 13, "MLR assay (EC50)": 10}, {"binder": "B29", "Luciferase assay (EC50)": 570, "MLR assay (EC50)": 1800}, {"binder": "B30", "Luciferase assay (EC50)": 1500}, {"binder": "B31", "Luciferase assay (EC50)": 775, "MLR assay (EC50)": 850}, {"binder": "B32", "Luciferase assay (EC50)": 775}, {"binder": "B33", "Luciferase assay (EC50)": 530}, {"binder": "B34", "Luciferase assay (EC50)": 880}, {"binder": "B35", "Luciferase assay (EC50)": 62, "MLR assay (EC50)": 550}, {"binder": "B36", "Luciferase assay (EC50)": 3300}, {"binder": "B37", "Luciferase assay (EC50)": 685, "MLR assay (EC50)": 2000}, {"binder": "B38", "Luciferase assay (EC50)": 1700}, {"binder": "B39", "Luciferase assay (EC50)": 322}, {"binder": "B40", "Luciferase assay (EC50)": 1300, "MLR assay (EC50)": 1700}, {"binder": "B41", "Luciferase assay (EC50)": 3800, "MLR assay (EC50)": 3200}, {"binder": "B42", "Luciferase assay (EC50)": 4100}]}]}
